Results reported in patent US20190025332A1.

Experiments:
[1] = target: wild type human MIC-1 (human) (UniProt Q99988); assay: SPR blocking; wtMIC-1 mixed with 0.25 nM mIgG1, over immobilised mGFRAL(ECR)-Fab; RU of wtMIC-1 binding
[2] = target: wild type human MIC-1 (human) (UniProt Q99988); assay: SPR blocking; wtMIC-1 mixed with 0 nM mIgG1, over immobilised hGFRAL(ECR)-Fab; RU of wtMIC-1 binding
[3] = target: wild type human MIC-1 (human) (UniProt Q99988); assay: SPR blocking; wtMIC-1 mixed with 8 nM mIgG1, over immobilised hGFRAL(ECR)-Fab; RU of wtMIC-1 binding
[4] = target: wild type human MIC-1 (human) (UniProt Q99988); assay: SPR blocking; wtMIC-1 mixed with 0.25 nM mIgG1, over immobilised hGFRAL(ECR)-Fab; RU of wtMIC-1 binding
[5] = target: wild type human MIC-1 (human) (UniProt Q99988); assay: SPR blocking; wtMIC-1 mixed with 0.5 nM mIgG1, over immobilised mGFRAL(ECR)-Fab; RU of wtMIC-1 binding
[6] = target: wild type human MIC-1 (human) (UniProt Q99988); assay: SPR blocking; wtMIC-1 mixed with 0 nM mIgG1, over immobilised mGFRAL(ECR)-Fab; RU of wtMIC-1 binding
[7] = target: wild type human MIC-1 (human) (UniProt Q99988); assay: SPR blocking; wtMIC-1 mixed with 2 nM mIgG1, over immobilised mGFRAL(ECR)-Fab; RU of wtMIC-1 binding
[8] = target: wild type human MIC-1 (human) (UniProt Q99988); assay: SPR blocking; wtMIC-1 mixed with 2 nM mIgG1, over immobilised hGFRAL(ECR)-Fab; RU of wtMIC-1 binding
[9] = target: wild type human MIC-1 (human) (UniProt Q99988); assay: SPR blocking; wtMIC-1 mixed with 8 nM mIgG1, over immobilised mGFRAL(ECR)-Fab; RU of wtMIC-1 binding
[10] = target: wild type human MIC-1 (human) (UniProt Q99988); assay: SPR blocking; wtMIC-1 mixed with 4 nM mIgG1, over immobilised mGFRAL(ECR)-Fab; RU of wtMIC-1 binding
[11] = target: wild type human MIC-1 (human) (UniProt Q99988); assay: SPR blocking; wtMIC-1 mixed with 0.125 nM mIgG1, over immobilised mGFRAL(ECR)-Fab; RU of wtMIC-1 binding
[12] = target: wild type human MIC-1 (human) (UniProt Q99988); assay: SPR blocking; wtMIC-1 mixed with 0.125 nM mIgG1, over immobilised hGFRAL(ECR)-Fab; RU of wtMIC-1 binding
[13] = target: wild type human MIC-1 (human) (UniProt Q99988); assay: SPR blocking; wtMIC-1 mixed with 1 nM mIgG1, over immobilised mGFRAL(ECR)-Fab; RU of wtMIC-1 binding
[14] = target: wild type human MIC-1 (human) (UniProt Q99988); assay: SPR blocking; wtMIC-1 mixed with 0.5 nM mIgG1, over immobilised hGFRAL(ECR)-Fab; RU of wtMIC-1 binding
[15] = target: wild type human MIC-1 (human) (UniProt Q99988); assay: SPR blocking; wtMIC-1 mixed with 4 nM mIgG1, over immobilised hGFRAL(ECR)-Fab; RU of wtMIC-1 binding
[16] = target: wild type human MIC-1 (human) (UniProt Q99988); assay: SPR blocking; wtMIC-1 mixed with 1 nM mIgG1, over immobilised hGFRAL(ECR)-Fab; RU of wtMIC-1 binding

wild type human MIC-1 (human), sequence (Q99988 197-308 limits assumed): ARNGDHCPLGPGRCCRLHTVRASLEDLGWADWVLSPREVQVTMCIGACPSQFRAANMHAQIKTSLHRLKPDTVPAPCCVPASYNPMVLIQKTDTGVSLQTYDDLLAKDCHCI

Response (RU) [1]: 54.6 RU
Response (RU) [2]: 58.3 RU
Response (RU) [3]: 59.4 RU
Response (RU) [4]: 59.4 RU
Response (RU) [5]: 55 RU
Response (RU) [6]: 55.6 RU
Response (RU) [7]: 54.5 RU
Response (RU) [8]: 60 RU
Response (RU) [9]: 55.5 RU
Response (RU) [10]: 55.4 RU
Response (RU) [11]: 55.3 RU
Response (RU) [12]: 58.4 RU
Response (RU) [13]: 54.1 RU
Response (RU) [14]: 58.4 RU
Response (RU) [15]: 59.1 RU
Response (RU) [16]: 59.3 RU
Substance: isotype control (mIgG1) (antibody)
